Measurements taken from the DeepSol protein solubility set.

assay: soluble on expression in E. coli; label from the status in PepcDB or PDB records

| Sequence | soluble on expression in E. coli |
| --- | --- |
| MSLNPKKYNGDHLDEKSREIMLKTIEFFENMGKAKLKEKASKREWYADFLEFIKENKIFYTLMTPPEYADGDPNVRWDTWRICDFSELLAFYSLDYWYTWQVTVLGLGPIWMSKNEKIKKEVAELLKNGAVFAFGLSEREHGADIYATETKLVPQPDGTYKAYGRKYYIGNSNVAAIISTFARIADPDGSLPDKPDKSRFAFFALRRDEKYYELIKNIVDAQMFVGDFLIHDYPVTEDDILEKGEEAWDAALNTVNVGKFNLGWASIGICTHAFYEAINHASKRRLYGMYVTDFPHIKRLFVDAYARLMAMKLFARRACDYMRVASREDRRYLLYSAMVKSKVTREGEEVINLLWDVIAAKGFEKDTYFEMAARHIRALPKLEGTVHVNMALILKFLPKYLFEPAEFPEVPKMDVPKHDEFLFNQGPSGGLSQVRFHDYQKVYDSFDFPNINVFKEQIATFKEMCMAAPPSPEQMRDFDFMVTWGEMFALLVYGHLILEAAKIYDVDKDLLEEIFDFMIRDFSKFAVELMAKPSATDKQIEYAKKMIKRPVPDKERFERVVKKVYSYADAYEMNEGHHHHHH | not soluble |
| MSLAHYKKFRLSTLAAVVGIVLAVGPENSYAEAPIQFNTRFLDVKDDASLDLSRFSRKGYIMPGSYHLQVLVNQSQIVQDNVITYSVDNNDPDNTYPCLSPELVSLLGLKPEIADKMIWINAGQCLQPDQLEGMETQTDLSQSTLTVIIPQAYLEYSDEEWDPPSRWDEGIPGVLFDYNVNSQWRHAEHDDGDEYDISGNGTVGANLGAWRLRADWQANYRHENDSEDKDNFGSSSEQNWDWNRYYAWRAIPQLRAQLTLGEGSLESDIFDGFNYVGGSLITDDQMLPPNLRGYAPDISGVARTNAKVTVTQRGRVIYESQVPAGPFRIQDINETVSGDLHVKIEEQSGQVQEYDVSTASIPFLTRPGQVRYKLAAGRPQDWDHNMEGGFFTSAEASWGIANGWSLYGGAIGEQDYQALALGLGRDLALLGAFSVDVTHSRATLPEGSAYGDGTIQGNSFRASYAKDFDDIDSRLTFAGYRFSEENYMTMDEFIDTHNDDNDRQRTGHDKEMYTLTYSQNFSAINVNAYINYTHRTYWNQPNQDSYNLTLSHYFDVGEVRGISLSVNGFRNEYDNERDDGVYVSLSIPWGNNRTLSYNGSFSDDNNSNQVGYYERIDDRNNYQINAGRADNGATLDGYYRYQASYADIDVSANYQEGDYTSGGLNIQGGATLTAKGGALHRTSVNGGSRLLVDVGDEANVPISGYSTPVYTNAFGKAVIVDVNDYYRNQVKIDITQLPEDAEAILSIAQATLTEGAIGYRRMEVLSGKKAMASIRLRDGGTPPFGAEVYNSRQQQLGIVGEDGSVYLIGINPGERLQVTWEGKTQCEATLPDPLPGDLFSGLLLPCIGDASSPEATQPEEKPLLQLHTQRRTSSTQPEALSSRYPTHEGGSHHHHHH | soluble |
| MSLARSLNNQRSRLVALVVNAIGNPCEAEEQQLLVHRLQARQLLPIILCCADHSDRLQLMRLASTYQVDHVVVFSDMVSMQDAVDIFHTTKPIIVSFEPLENESVSSIRIDGAEAADEIIDKIVRDGKKRFAYLSGTNSSWIDKLRRKWFADALAKRGLAFEAQAFGDYSYDSGFKEAVLLLHRDKVDAIICGNDVMAIGARDAARRVLGKNTPDDIAIVGQDGIAMAAWDCNDLTTLSLDHVAFIDAVVELIERHDAEVEGPHSITLTCTARWGSEGHHHHHH | not soluble |
| EEDWVLPSEVEVLESIYLDELQVIKGNGRTSPWEIYITLHPATAEDQDSQYVCFTLVLQVPAEYPHEVPQISIRNPRGLSDEQIHTILQVLGHVAKAGLGTAMLYELIEKGKEILTDNNIPHGQ | soluble |
| MSESFAELFEESLKTLNLQAGSIITGVIVDIDYQARWVTVHAGLKSEALIPLEQFYNDAGELSINVGDEVHVALDSVEDGFGETKLSREKAKRAECWIVLEAAFAAEEVVKGVINGKVKGGFTVDVNGIRAFLPGSLVDVRPVRDTTHLEGKELEFKVIKLDQKRNNVVVSRRSVLEAENSAEREALLESLQEGQQVKGIVKNLTDYGAFVDLGGVDGLLHITDMAWKRIKHPSEIVNVGDEIDVKVLKYDRERNRVSLGLKQLGEDPWVAIKARYPESTRVTARVTNLTDYGCFAELEEGVEGLVHVSEMDWTNKNIHPSKVVQVGDEVEVMVLDIDEERRRISLGIKQCKSNPWEDFSGQFNKGDKISGTIKSITDFGIFIGLDGGIDGLVHLSDISWNEVGEEAVRRFKKGDELDTVILSVDPERERISLGIKQLESDPFSEYVQENDKGAIVKGVVKEVDAKGAIITLANDIEATLKASEISRDRIEDARNVLKEGEEVEAKIISVDRKSRVIQLSIKSKDVEDEKEAIQSLRDKPAASDIAAGPTTLGDLLRAQMEKQN | soluble |
| MKTTTQELKQYITRLFQLSNNETWECEALEEAAENILPERFINNSLLAHLTLNTYTYYNDELHELSIYPFLMYANDQLISIGYLDHFDMDFLYLTDTKNTLIDERHLLKQGGNHHELEHHHHHH | soluble |
| MGSDKIHHHHHHMRIDTVNVLLEALPYIKEFYGKTFVIKFGGSAMKQENAKKAFIQDIILLKYTGIKPIIVHGGGPAISQMMKDLGIEPVFKNGHRVTDEKTMEIVEMVLVGKINKEIVMNLNLHGGRAVGICGKDSKLIVAEKETKHGDIGYVGKVKKVNPEILHALIENDYIPVIAPVGIGEDGHSYNINADTAAAEIAKSLMAEKLILLTDVDGVLKDGKLISTLTPDEAEELIRDGTVTGGMIPKVECAVSAVRGGVGAVHIINGGLEHAILLEIFSRKGIGTMIKELEG | not soluble |
| MKMNNTKEYSIRTPSLGNLPPGTTGTCCPPPLVFPLLPLSPPPSPPPSPSSPPRLPPPFPALFPPEPPLPPRFELPPPLFPPPPLPRLPPPLLPPPEEPPREPPPPPPPPEEPPPPASCLRTKSPENGIVSTVK | not soluble |
| MSSNPLRFFVLTIFPHIISCYSEYGIVKQAIKKGKVEVYPIDLREFAPKGQVDDVPYGGLPGMVLKPEPIYEAYDYVVENYGKPFVLITEPWGEKLNQKLVNELSKKERIMIICGRYEGVDERVKKIVDMEISLGDFILSGGEIVALAVIDAVSRVLPGVLSEPQSIQEDSFQNRWLGYPVYTRPREYRGMKVPEELLSGHHKLIELWKLWHRIENTVKKRPDLIPKDLTELEKDILNSILSGKSFKEWLKEHKHLL | soluble |
| MAHHHHHHMSNELLQGAALYKELLCVYHNLAESELGLSGGDVGALFQIKENLSQPISCDIQKCKEILTKLKLVLIHLPSVDPLVPIGKKNINELLLARHILEKGVIISILDRDIKAFSIYMAQLLLYYFDYCNFLPKSGNQNGIIGMYLLYLLSSNLIGDFHMTLEVISIEDQSDEYIKYALELEQHIMDGYFHHVLTKKENIPLYLYSLFIERLYNTIRHKLADCLFASSNCISSEYACELLKLGSEQELCQFIGEYNEAKTSQGECNLLWEVRNKKIYFNNQTVHVQDLPALEVLNNTIGYATELERIV | not soluble |
| MAHHHHHHMWWTAARRRLYYPNQIFLSKDNRRINNSWLPRRLLLVRHGESEANVNREVYSNTPDWKIPLTALGREQAYDCGKRLRNIIQGEKLYIYYSPYARTRQTVSEIRRSFDESQIQGEREDERLREQEMGNYQPLQDMDATWAARNAFGRLYYRFPFGESGADVGDRVSGFFDSLLRESIGLTVPNMNECVVQGAREGLGALDLGPWSTGVDNVPGSSCACSVSTSQGGPVASSTGSESAPPSWTPSFHQATTSSAGLRRTIRRTSPHRPLPLSDFGEAETRGVPPLNDHCASAGEEQNVLIIAHGLLIRLFIGRWFRVPMEVFETMCNPPNCAIIVLERDDRLGRLVMTDMSKSLFGSDPLLQMMRFDGREDTHWYREKFLGIVDPTKAAEEAVVEDDDENHYSMSNAHNSGVGAPAPPPRQRKPSTSTATRASPSTSASASGTSASSAESADVSASTAEHAALAARDRATQPKCPPPCMDCTPNRDYMTFSRRR | not soluble |
| MSFDGFFLHHLTNELQEQIEKGRIQKVNQPFDHELVLTIRNNRRNYKLLLSAHPVFGRIQTTEANFQNPQNPNTFTMIMRKYLQGAVIETIQQIENDRILEIVVSNKNEIGDHIKATLVVEIMGKHSNIILIDKNEHKIIESIKHVGFSQNSYRTILPGSTYIAPPKTKAINPFDISDQTLFELLQTNDLSPKNLQQLLQGLGRDTALELSHCLKDNKLNDFRQFFSREYYPSLTEKSFSAVQFSSSHETFQSLGQLLDYYYQEKAEKDRIAQQASDLIHRVQSELEKNIKKLAKQQDELLATENAEEFRQKGELLTTYLSMVPNNQDVVVLDNYYTNQTIEISLDRALTPNQNAQRYFKKYQKLKEAVKHLKGIISDTENTITYLESVETSLNHASMEDINDIREELVETGFIKRRAHDKQHKRKK | not soluble |
| MSGLKLVTVLLLALCTATEAAKCRGKYMEMRGREGFVTRGGCRGLDSQIQEEYWTTVGFDGDLRDGRTTDDFLVFPANENNGHTQTNSFVGYWDMKESVNPITRSKYGENVHYEAFGHAFIKPDGKVCGWFVGSHKEVVEVCGGFRVLSRSRFNPHQPIPFEWVQGEQYRNRDVLGFHHHKIAKYEANADEVLFGDADVKGKKFNGVSINNEQRVEVDTPETFHRKVWLLRKKSTQPPSDVRAAYHHPRKLL | not soluble |
| MSSKPLLTLQELAAQNILRNEALAISALQYLPELFLPQLLKQAYDGNHLKVLRAIVSSWPFPRLPLGALKKRTPYLETQLQVVLEEVDKLLIQEVHPREYKLEVLDLRSVGQNYLNVWPGAMDDWLPKTTQTDPCCSKTVMTQPLKVLVDLQLNNRGQSRLFSYLVQWSDRRKGLLQLYCNKLQIWSPSQQNYRKLSQKVNLDYVETLGLHSSCSPSFLLNFAPYLRQMRNLRKLALSNIREEHIISPEKRRCIITRFTLQILKLESLQKLHLDAVCFLEGHLDQLLGSVKTSLDELAVTHCNLSVSEWSHFSEFPCVSQLQQLNLENVRLTGLSPEPLQVLLVKAGPTLVALDLEDCHLEDGQLYAILPALSKCFKLTKFSFYGNQISMLAMKDLLHHTASLIHLRLELYPVPQDSYDYHGTPLMQRMQQHCDELMNLLKTFRNPGRVFFGTDRCDQCCNRYIYNKTIMCNCRRSY | not soluble |
| MCIMCELKNFRRNITCFEGYDENSFIGKWYDDGVWDDEEYWKLENDLIEVRKKYPYPMDIPRYVVIGIGTIIDFLMVPNWKLFEIKASPWLPDSVGINERYERLKTMLRYIFTEKDIVNVQFDYYNKK | not soluble |
| MSRSRKPDWLKMRPPSGERFTDIKQTLRDRNLNTVCEEANCPNLGECWSGRDGPGTATFMLMGDRCSRGCNFCDVETGGMDPLDPDEPQQVADAVAEIGLDYVVLTSVDRDDLPDQGASHFAETIRAIKERDPSILVECLIPDFQGEPDLVRKIIDADPDVIAHNIETVDRLQWPVRDRRAGYEQSLSVLRQVNRESDCYSKTSLMLGVGEYAHEVYQTLSDLRQAGVDVVTFGQYLQPSRSHLEVSEYVHPDAFDTWQQVAEAEFDFLYCASGPMVRSSYRAGELFVESVLREGRSADEARAEVRAND | not soluble |
| MGSDKIHHHHHHMTHFGVDLWDRFTTRIGEARETLRAAGAPTGLLDQAEGARYLSRIVRLGLEMYLEGGDPDFPSFVLPSHATAKLGGDNPDNLYLSATILGDRSYRLTGNIGSVHYLSIGSKANRYAIDGTMASTGELQKEAFRADANGDFTVIASVKRPEGDVAWLPLAPDSNILQVRQTFLNRARETPARFAIERISEGLAHPAPTDPLAIERRMMAAADFVVNATRMFASWTAMFMPYPNEMRDWGQDMFHKAGGDPAIFYVHGYWKLAPGERLLIETDVPECEHWNIQVDNWWMESMDYRYLPACINAGNAEREADGSVRIVLAADDPGERNWLTTHGHSEGHLLLRWVRAASHPIPKLTLLRD | not soluble |
| MGSDKIHHHHHHMRGCFSVTGVEDVCERLGVPCVPLDDPVEVSGEVFQKIKISRKVLEADKVVNLPKLKTHSQMVMTLGVKNTFGCVVGLEKSSWHMRAKNYDDFANLLIDIHRIVSPVLTILDGVEGMEGNGPTNGKKKHFGLVAVSKNAFALDDAVCKALGIDHVVYTVQHARKRRVVPDYEIVGTFHASIQLPSTVSTLDRLSRTFSRFFVKYPKIDTRKCVKCRLCEERCPASAIDISSQRIDYQKCIRCYVCHEVCPQDAIKLVRRLV | not soluble |
